Test results: publication PMC8072242 (Proceedings of the National Academy of Sciences of the …, 2021)

T1: MsDyP (unencapsulated DyP) (Mycolicibacterium smegmatis, UniProt A0R4G9)
T1 sequence (A0R4G9 1-343): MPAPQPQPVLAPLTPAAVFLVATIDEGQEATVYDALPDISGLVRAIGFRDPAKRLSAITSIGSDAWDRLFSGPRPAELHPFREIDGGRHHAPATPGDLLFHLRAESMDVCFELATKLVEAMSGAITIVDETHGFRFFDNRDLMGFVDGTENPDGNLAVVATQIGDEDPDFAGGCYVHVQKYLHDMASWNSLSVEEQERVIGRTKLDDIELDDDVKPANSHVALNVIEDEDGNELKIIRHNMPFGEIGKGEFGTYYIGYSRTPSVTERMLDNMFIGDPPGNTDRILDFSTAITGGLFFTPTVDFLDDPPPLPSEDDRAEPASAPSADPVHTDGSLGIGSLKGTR


Tests used:
[1] = molecular target: T1, MsDyP (unencapsulated DyP); type: biochemical
cryo-EM structure = molecular target: the molecule itself; assay: cryo-EM structure

Molecule | peroxidase assay, oxidation monitored at 430 nm [1] | stoichiometry N (cryo-EM structure)
Oc1cccc(O)c1O [pyrogallol] | utilizing H2O2 as the electron acceptor and pyrogallol (Sigma P0381-25g) as an electron donor | 
DyP (dye-decolorizing peroxidase), native cargo of the Mycobacterium smegmatis encapsulin (enzyme) MPAPQPQPVLAPLTPAAVFLVATIDEGQEATVYDALPDISGLVRAIGFRDPAKRLSAITSIGSDAWDRLFSGPRPAELHPFREIDGGRHHAPATPGDLLFHLRAESMDVCFELATKLVEAMSGAITIVDETHGFRFFDNRDLMGFVDGTENPDGNLAVVATQIGDEDPDFAGGCYVHVQKYLHDMASWNSLSVEEQERVIGRTKLDDIELDDDVKPANSHVALNVIEDEDGNELKIIRHNMPFGEIGKGEFGTYYIGYSRTPSVTERMLDNMFIGDPPGNTDRILDFSTAITGGLFFTPTVDFLDDPPPLPSEDDRAEPASAPSADPVHTDGSLGIGSLKGTR |  | 12
CFP-29 (29 kDa culture filtrate protein), encapsulin shell protein of Mycobacterium smegmatis (natural protein) MNNLYRDLAPITESAWAEIELEATRTFKRHIAGRRVVDVSGPNGPTTASVSTGHLLDVSPPGDGVIAHLRDAKPLVRLRVPFTVARRDIDDVERGSQDSDWDPVKDAAKKLAFVEDRAIFEGYAAASIEGIRSSSSNPALALPDDAREIPDVIAQALSELRLAGVDGPYSVLLSAETYTKVSETTAHGYPIREHINRLVDGEIIWAPAIDGAFVLSTRGGDFDLQLGTDVSIGYLSHDAEVVHLYMEETMTFLCYTAEASVALTP |  | 60
